One may read the Kd as the free concentration of one partner at which half of the binding sites on the other are occupied at equilibrium, for simple one-to-one binding. Lower therefore signals a tighter complex.

Positions count from the first letter of the chain named.

Test [1] addresses T1, human GLUT4 (hsGLUT4), wild type (UniProt P14672 1-509).
T1 chain: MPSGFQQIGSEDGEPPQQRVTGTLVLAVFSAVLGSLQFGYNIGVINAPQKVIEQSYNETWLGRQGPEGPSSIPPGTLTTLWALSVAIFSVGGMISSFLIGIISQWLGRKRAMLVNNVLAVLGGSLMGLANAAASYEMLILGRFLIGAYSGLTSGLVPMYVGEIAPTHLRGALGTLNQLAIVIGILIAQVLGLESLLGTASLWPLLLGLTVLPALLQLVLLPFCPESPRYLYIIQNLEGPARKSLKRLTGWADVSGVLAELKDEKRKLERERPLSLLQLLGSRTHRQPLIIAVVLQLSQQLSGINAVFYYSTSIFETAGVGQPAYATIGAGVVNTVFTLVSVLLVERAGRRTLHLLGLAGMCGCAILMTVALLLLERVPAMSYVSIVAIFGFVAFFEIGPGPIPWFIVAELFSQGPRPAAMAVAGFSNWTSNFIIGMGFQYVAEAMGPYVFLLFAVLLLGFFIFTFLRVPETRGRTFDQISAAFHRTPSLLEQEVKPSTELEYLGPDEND
The test is described as follows: BLI; avid.

Test [2] has as its target T2, mouse GLUT4 (mmGLUT4) (mouse, UniProt P14142 1-509).
T2 construct: whole, on cells; Also tested as endogenous protein in murine 3T3-L1 adipocytes; also called endogenous GLUT4 of 3T3-L1 adipocytes
T2 sequence (looked up): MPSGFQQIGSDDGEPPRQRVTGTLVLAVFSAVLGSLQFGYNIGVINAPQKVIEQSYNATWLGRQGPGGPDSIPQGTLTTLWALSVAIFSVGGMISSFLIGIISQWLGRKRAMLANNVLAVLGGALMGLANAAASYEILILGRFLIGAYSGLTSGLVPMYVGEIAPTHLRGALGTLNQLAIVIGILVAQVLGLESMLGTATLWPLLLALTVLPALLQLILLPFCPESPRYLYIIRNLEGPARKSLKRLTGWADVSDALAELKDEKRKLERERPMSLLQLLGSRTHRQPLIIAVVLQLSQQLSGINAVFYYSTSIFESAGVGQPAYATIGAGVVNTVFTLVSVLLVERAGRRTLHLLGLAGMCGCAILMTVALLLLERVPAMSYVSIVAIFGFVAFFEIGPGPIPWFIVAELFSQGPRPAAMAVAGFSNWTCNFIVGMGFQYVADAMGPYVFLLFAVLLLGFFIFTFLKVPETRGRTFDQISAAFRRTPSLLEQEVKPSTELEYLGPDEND
The test is described as follows: immunofluorescence, permeabilized 3T3-L1 adipocytes (data not shown). The procedure:
(§1) Adipocytes, between 7-8 days post-differentiation, were serum-starved for 3 hours in Dulbecco's modified Eagle's medium with […] bicarbonate and 20 mM HEPES pH 7.4, prior to stimulation for 20 minutes at 37° C. with or without 170 nM human insulin (Sigma Aldrich) prepared in the same media with 2% BSA. Adipocytes were washed twice with ice-cold PBS with calcium and magnesium (PBS+/+) and remained on ice for all subsequent steps.
(§2) Adipocytes were blocked with 10% Normal Goat Serum (NGS) in PBS+/+ for 30 minutes on ice before adding test antibodies at 10 ug/ml in 10% NGS. Primary antibodies were incubated for 2 hours, then washed 2× with PBS+/+. Cells were subsequently fixed for 5 minutes in 4% paraformaldehyde (PFA), washed 2× with PBS+/+, and then stained with secondary antibody (AF488 conjugated Goat anti-human, Jackson Immunoresearch) diluted 1:200 in 10% NGS. Secondary antibody was incubated for 1 hour, after washing 3× with PBS+/+. For intracellular staining, cells were fixed prior to the blocking step and permeabilized with 10% NGS containing 0.2% Saponin. The 1F8 antibody was used at 1 μg/ml, and detected using AF647-conjugated goat anti-mouse secondary antibody diluted 1:400 (Jackson Immunoresearch). Alexafluor 488 was visualized using the B-2EC cube with an exposure time of 1.5 seconds. Alexafluor 647 was visualized using the Cy5 cube with an exposure time of 2 seconds.

Another test concerns the target T3, hsGLUT4 Y159A (human, UniProt P14672 1-509).
T3 sequence: T1 chain with Y159A
The test is described as follows: flow cytometry, alanine-scan library in HEK-293T, with cytochalasin B. (In flow cytometry, cells or beads pass a laser one at a time.)

Test [3] has as its target T2, mouse GLUT4 (mmGLUT4). The test is described as follows: immunofluorescence, surface of 3T3-L1 adipocytes (data not shown). The protocol:
as §1, §2

B1: AB111 (Fc fusion)
scFv: ALTQPSSVSANPGETVKITCSGSGSWYGWFQQKSPGSAPVTVIYSNDKRPSDIPSRFSGSKSGSTSTLTITGVQVEDEAVYYCGNWDIFGAGTTLTVLGQSSRSSGGGGSSGGGGSAVTLDESGGGLQTPGGALSLVCKASGFTFSSHGMGWVRQAPGKGLEWVASISTGRYTFYAPAVKGRATISRDNGQSTVRLQLNNLRAEDTATYYCTKCAGLNGCGGGEIDAWGHGTEVIVSS
notes: Bivalent scFv-Fc; also called MAb AB111; not shown: Fc fragment of human IgG1, cloned in frame with the scFv
As for B1, in test [1], binding was put at a Kd of 0.56 nM. The binding result in the test with mouse GLUT4 (mmGLUT4) [2] is reported as “binds”.

B2: AB102 (Fc fusion)
scFv: ALTQPSSVSANLGGTVKITCSGGGSYGYGWYQQKSPGSAPVTVIYSNDQRPSDIPSRFSGSKSGSTATLTITGVRAEDEAIYYCGSTDSDYVGIFGAGTTLTVLGQSSRSSGGGGSSGGGGSAVTLDESGGGLQTPGGTLSLVCKASGFDFSSYATIWVRQAPGKGLEWVAGISGTGTGSSTGYAPAVKGRATISRDNGQSTVRLQLNNLRAEDTGSYFCAKSTGYGDSWIYPDSIDAWGHGTEVIVSS
notes: also called MAb AB102; not shown: Fc fragment of human IgG1, cloned in frame with the scFv
With B2, in the test with hsGLUT4 Y159A, the % of binding to wild type GLUT4 came out at 11%. Also, the binding result with mouse GLUT4 (mmGLUT4) [2] is recorded as “binds”.

B3: AB108 (Fc fusion)
scFv: ALTQPSSVSANLGGTVKITCSGSSGSYGWYQQKAPGSAPVTLIYRNDKRPSDIPSRFSGSESGSTGTLTITGVQAEDEAVYFCGGYDSSAGYAAFGAGTTLTVLGQSSRSSGGGGSSGGGGSAVTLDESGGGLQTPGGALSLVCKASGFTFSSHGMGWVRQAPGKGLEWVGSISTGRYTFYAPAVKGRATISRDNGQSTLRLQLNNLRAEDTGTYYCTKCAGLNGCGGGEIDAWGHGTEVIVSS
notes: Bivalent scFv-Fc; also called MAb AB108; not shown: Fc fragment of human IgG1, cloned in frame with the scFv
As for B3, in test [1], binding was characterised by a dissociation constant (Kd) of 1.8 nM.

B4: AB105 (Fc fusion)
scFv: ALTQPSSVSANPGETVEITCSGDSSYYGWYQQKSPGSAPVTVIYANTNRPSDIPSRFSGSASGSTATLTITGVQAEDEAVYYCGSADSTYAGIFGAGTTLTVLGQSSRSSGGGGSSGGGGSAVTLDESGGGLQTPGGALSLICKASGFTFSSYTMNWVRQAPGKGLEWVGVISNSGRTTNYGAAVQGRATISRDNGQSTVRLQLNNLRAEDTGTYYCAKSSASASCAWWAGRSYPCSANRIDAWGHGTEVIVSS
notes: Bivalent scFv-Fc; also called MAb AB105; not shown: Fc fragment of human IgG1, cloned in frame with the scFv
With B4, the binding result with mouse GLUT4 (mmGLUT4) [3] is “binds”.

Source of the values: patent publication US20210238276A1 (INTEGRAL MOLECULAR, published 2021).
